# Test results published in paper PMC5794803, “IGFBPL1 Regulates Axon Growth through IGF-1-mediated Signaling Cascades” (Scientific Reports, 2018).
# B1: recombinant mouse IGFBPL1 (insulin-like growth factor binding protein-like 1) (natural protein, UniProt Q80W15 18-270, looked up)
# chain: LGLRDAGRRHPECSPCQQDRCPAPSPCPAPWISARDECGCCARCLGAEGASCGGPVGSRCGPGLVCASRASGTAPEGTGLCVCAQRGAVCGSDGRSYSSICALRLRARHAPRAHHGHLHKARDGPCEFAPVVLMPPRDIHNVTGTQVFLSCEVKAVPTPVITWKKVKHSPEGTEGLEELPGDHVNIAVQVRGGPSDHETTSWILINPLRKEDEGVYHCHAANAIGEAQSHGTVTVLDLNRYKSLYSSVPGDLL
# Biological target: recombinant mouse IGF-1 (insulin-like growth factor 1) (mouse, UniProt P05017 49-118)
# Sequence (P05017 49-118): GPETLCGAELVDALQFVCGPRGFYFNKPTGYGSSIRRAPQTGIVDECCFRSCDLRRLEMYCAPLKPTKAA
# Test: cell-based or functional assay
binder,measurement,value
B1,"PI3K phosphorylation (Western blot) in P10 RGCs after co-administration of IGF-1 and IGFBPL1, compared to the control group",6 fold
same,"mTOR phosphorylation (Western blot) in P10 RGCs after co-administration of IGF-1 and IGFBPL1, compared to the control group",3 fold
